For the assay, the target named is IL-6R (UniProt P08887). In words: cell-based or functional assay.
Sequence of IL-6R (P08887 20-468 limits assumed): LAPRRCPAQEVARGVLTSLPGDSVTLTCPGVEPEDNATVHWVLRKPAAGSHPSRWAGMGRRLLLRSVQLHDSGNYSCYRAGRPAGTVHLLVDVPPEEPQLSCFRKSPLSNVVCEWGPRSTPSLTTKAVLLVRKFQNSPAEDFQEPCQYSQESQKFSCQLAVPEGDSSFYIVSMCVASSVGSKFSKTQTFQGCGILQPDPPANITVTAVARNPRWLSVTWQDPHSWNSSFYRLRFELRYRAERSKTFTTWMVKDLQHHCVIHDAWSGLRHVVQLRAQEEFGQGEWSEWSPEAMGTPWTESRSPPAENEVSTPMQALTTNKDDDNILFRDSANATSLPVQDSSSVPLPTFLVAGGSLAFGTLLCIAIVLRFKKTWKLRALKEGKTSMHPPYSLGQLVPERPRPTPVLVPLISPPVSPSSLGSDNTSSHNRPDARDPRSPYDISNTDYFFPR

In turn, Tocilizumab (antibody) came in with a Relative IL-6 Inhibition (%) of IL-6-dependent U266B1 cell proliferation, Tocilizumab at 1 µg/mL (6.7 × 10^-9 M) of 15.1%; a Relative IL-6 Inhibition (%) of IL-6-dependent U266B1 cell proliferation, Tocilizumab at 10 µg/mL (6.7 × 10^-8 M) of 60.7%; a Relative IL-6 Inhibition (%) of IL-6-dependent U266B1 cell proliferation, Tocilizumab at 100 µg/mL (6.7 × 10^-7 M) of 57%.

The record behind these values is patent US20140315986A1.
